Experimental data: patent publication US20200095340A1
Numbering of substitutions follows the chain as printed.

B1: anti-DLL3 trispecific protein 4B09 (protein, part only; not given: anti-CD3 fragment and anti-albumin sdAb, part only)
chain, part: EVQLVESGGGLVQPGGSLTLSCAASGSSVSFLSMAWYRQAPGKKRELVAGISADGSTDYISSVKGRFTISRDNAKNSVYLQMNSLRAEDTAVYYCYAYSWTTRYTYWGQGTLVTVSSGGGGSGGGSGGGGSGGGSHHHHHH
B2: anti-DLL3 trispecific protein 4D011 (protein, part only; not given: anti-CD3 fragment and anti-albumin sdAb, part only)
chain, part: B1 chain, part with S30R, A53V, S61D, S99R, T101R
B3: anti-DLL3 trispecific protein 3A09 (protein, part only; not given: CD3 binder and albumin binder, part only)
chain, part: B1 chain, part with T57V, S61D, S99R, T105I
B4: anti-DLL3 trispecific protein 4F010 (protein, part only; not given: anti-CD3 and anti-albumin domains, part only)
chain, part: B1 chain, part with A53I, S61K, S99R, T105R
B5: anti-DLL3 trispecific protein 4H04 (protein, part only; not given: anti-CD3 fragment and anti-albumin sdAb, part only)
chain, part: B1 chain, part with S30K, I51V, S61D, S99E
B6: anti-DLL3 trispecific protein 4C011 (protein, part only; not given: anti-CD3 and anti-albumin domains, part only)
chain, part: B1 chain, part with S28R, D58V, S61D, S99R, T102R
B7: anti-DLL3 trispecific protein 4D08 (protein, part only; not given: anti-CD3 and anti-albumin domains, part only)
chain, part: B1 chain, part with S30N, D58H, S61D, S99R, T101L
B8: anti-DLL3 trispecific protein 3D07 (protein, part only; not given: anti-CD3 and anti-albumin domains, part only)
chain, part: B1 chain, part with S30R, S61D
B9: anti-DLL3 trispecific protein 3C08 (protein, part only; not given: anti-CD3 fragment and anti-albumin sdAb, part only)
chain, part: B1 chain, part with S30K, A53L, S61D, S99R, T102G
B10: anti-DLL3 trispecific protein 4D05 (protein, part only; not given: anti-CD3 fragment and anti-albumin domain, part only)
chain, part: B1 chain, part with V29S, D58V, S61D, S99R, Y104R
B11: anti-DLL3 trispecific protein 4A011 (protein, part only; not given: CD3 binder and albumin binder, part only)
chain, part: B1 chain, part with S28K, D58T, S61D, S99R, T101K
B12: anti-DLL3 trispecific protein 1B09 (protein, part only; not given: anti-CD3 and anti-albumin domains, part only)
chain, part: EVQLVESGGGLVQPGGSLTLSCVASGSTSSINAMAWYRRAPGKQRELVAGISSDGSKVYVDSVKGRFTISRDNAKNSVYLQMNSLRAEDTAVYYCYYFRTVSGSSMRYWGQGTLVTVSSGGGGSGGGSGGGGSGGGSHHHHHH
B13: anti-DLL3 trispecific protein 2H07 (protein, part only; not given: anti-CD3 fragment and anti-albumin sdAb, part only)
chain, part: B12 chain, part with M34V, A35G, K57T, V60A, S104H
B14: anti-DLL3 trispecific protein 1A06 (protein, part only; not given: anti-CD3 fragment and anti-albumin sdAb, part only)
chain, part: B12 chain, part with A35G, V48A, K57S, V60A, M106K
B15: anti-DLL3 trispecific protein 2E02 (protein, part only; not given: anti-CD3 fragment and anti-albumin sdAb, part only)
chain, part: B12 chain, part with S30A, A35G, M106Q
B16: anti-DLL3 trispecific protein 1F010 (protein, part only; not given: anti-CD3 fragment and anti-albumin sdAb, part only)
chain, part: B12 chain, part with S30R, A35G, V60K
B17: anti-DLL3 trispecific protein 2B07 (protein, part only; not given: CD3 fragment and albumin sdAb, part only)
chain, part: B12 chain, part with M34F, A35G, V60A, S102R
B18: anti-DLL3 trispecific protein 2F03 (protein, part only; not given: anti-CD3 fragment and anti-albumin sdAb, part only)
chain, part: B12 chain, part with V48A, G55N, V60A, S102G
B19: anti-DLL3 trispecific protein 2A04 (protein, part only; not given: anti-CD3 fragment and anti-albumin domain, part only)
chain, part: B12 chain, part with V60T, V101T
B20: anti-DLL3 trispecific protein 1C03 (protein, part only; not given: anti-CD3 and anti-albumin domains, part only)
chain, part: B12 chain, part with G55N, V60A, S102G
B21: anti-DLL3 trispecific protein 2H010 (protein, part only; not given: CD3 fragment and albumin sdAb, part only)
chain, part: B12 chain, part with A35G, V48A, V58L, V60A
B22: anti-DLL3 trispecific protein 2D04 (protein, part only; not given: CD3 binder and albumin binder, part only)
chain, part: B12 chain, part with M34V, A35G, V60R, S102Q
B23: anti-DLL3 trispecific protein 2G07 (protein, part only; not given: anti-CD3 and anti-albumin domains, part only)
chain, part: B12 chain, part with V60A, S102Q
B24: anti-DLL3 trispecific protein 2C07 (protein, part only; not given: anti-CD3 and anti-albumin domains, part only)
chain, part: B12 chain, part with V60A, T100S
B25: anti-DLL3 trispecific protein 1D03 (protein, part only; not given: CD3 binder and albumin binder, part only)
chain, part: B12 chain, part with M34I, A35G, Y59L, V60A, T100I, R107G
B26: anti-DLL3 trispecific protein 1F05 (protein, part only; not given: CD3 fragment and albumin sdAb, part only)
chain, part: B12 chain, part with S29R, A35G, V60A, R99H
B27: anti-DLL3 trispecific protein 1F012 (protein, part only; not given: anti-CD3 fragment and anti-albumin sdAb, part only)
chain, part: B12 chain, part with S27L, A35G, V60Q, V101N
B28: anti-DLL3 trispecific protein 1H01 (protein, part only; not given: CD3 binder and albumin binder, part only)
chain, part: B12 chain, part with V48A, G55N, V60A, V101R
B29: anti-DLL3 trispecific protein 2H04 (protein, part only; not given: anti-CD3 fragment and anti-albumin domain, part only)
chain, part: B12 chain, part with A35G, G55T, V60A, S105Y
B30: anti-DLL3 trispecific protein 1H011 (protein, part only; not given: anti-CD3 and anti-albumin domains, part only)
chain, part: B12 chain, part with M34I, A35G, V60N, V101Q
B31: anti-DLL3 trispecific protein 2C08 (protein, part only; not given: anti-CD3 and anti-albumin domains, part only)
chain, part: B12 chain, part with S30R, A35G, V60Q, T100R
B32: anti-DLL3 trispecific protein 1C02 (protein, part only; not given: anti-CD3 fragment and anti-albumin sdAb, part only)
chain, part: B12 chain, part with V60S, Y108S
B33: anti-DLL3 trispecific protein 1D01 (protein, part only; not given: CD3 binder and albumin binder, part only)
chain, part: B12 chain, part with S30D, A35G, G55K, V60A, S102R
B34: anti-DLL3 trispecific protein 2D07 (protein, part only; not given: anti-CD3 fragment and anti-albumin sdAb, part only)
chain, part: B12 chain, part with M34V, A35G, S56T, V60R, S102Q
B35: anti-DLL3 trispecific protein 2D011 (protein, part only; not given: anti-CD3 fragment and anti-albumin sdAb, part only)
chain, part: B12 chain, part with S27T, A35G, V60A, S102W
B36: anti-DLL3 trispecific protein 1B011 (protein, part only; not given: CD3 binder and albumin binder, part only)
chain, part: B12 chain, part with S30R, A35G, V60A, S102Y
B37: anti-DLL3 trispecific protein 2G03 (protein, part only; not given: CD3 binder and albumin binder, part only)
chain, part: B12 chain, part with A35G, K57L, V60A, Y108A
B38: anti-DLL3 trispecific protein 1E010 (protein, part only; not given: anti-CD3 fragment and anti-albumin sdAb, part only)
chain, part: B12 chain, part with T28V, A35G, V60I, S104L
B39: anti-DLL3 trispecific protein 1A03 (protein, part only; not given: CD3 fragment and albumin sdAb, part only)
chain, part: B12 chain, part with V60A, M106S
B40: anti-DLL3 trispecific protein 1H07 (protein, part only; not given: anti-CD3 fragment and anti-albumin sdAb, part only)
chain, part: B12 chain, part with M34F, A35G, V60S
B41: anti-DLL3 trispecific protein 2C09 (protein, part only; not given: anti-CD3 and anti-albumin domains, part only)
chain, part: EVQLVESGGGLVQPGGSLTLSCVPSGSTSNINAMGWYRRAPGKQRELPAGISSDGTKIYADSAKVPFTITRDNAKNSVYLQMNSLRAEDTAVYYCYYFRTVSGTSMRYWGQGTLVTVSSGGGGSGGGSGGGGSGGGSHHHHHH

target: biotinylated human DLL3 protein expressed as a human IgG1 fusion protein (human) (UniProt Q9NYJ7); assay: Octet BLI; biotinylated huDLL3-IgG1 fusion on streptavidin tips; single 50 nM; conditioned medium
Sequence (Q9NYJ7 other isoform, or with tags, fused parts or gaps): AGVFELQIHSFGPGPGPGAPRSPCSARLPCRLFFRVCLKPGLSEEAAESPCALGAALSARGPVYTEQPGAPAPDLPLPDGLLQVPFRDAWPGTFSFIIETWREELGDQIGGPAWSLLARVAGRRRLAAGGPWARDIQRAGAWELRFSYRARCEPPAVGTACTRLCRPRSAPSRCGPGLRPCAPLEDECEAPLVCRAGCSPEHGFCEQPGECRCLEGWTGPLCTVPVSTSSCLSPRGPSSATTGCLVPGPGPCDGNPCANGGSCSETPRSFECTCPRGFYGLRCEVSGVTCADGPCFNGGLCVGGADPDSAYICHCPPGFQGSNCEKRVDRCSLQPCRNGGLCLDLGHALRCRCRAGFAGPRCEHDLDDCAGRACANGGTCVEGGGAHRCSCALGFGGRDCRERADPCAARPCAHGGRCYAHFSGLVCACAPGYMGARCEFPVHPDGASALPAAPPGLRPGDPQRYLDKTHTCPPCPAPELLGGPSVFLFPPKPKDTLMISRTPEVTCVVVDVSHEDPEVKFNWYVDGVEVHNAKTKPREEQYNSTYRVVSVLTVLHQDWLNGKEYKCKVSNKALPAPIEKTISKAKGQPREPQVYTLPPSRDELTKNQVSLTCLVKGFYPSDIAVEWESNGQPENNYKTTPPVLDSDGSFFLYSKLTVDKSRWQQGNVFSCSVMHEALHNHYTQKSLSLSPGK

| Kd [nM] | Binder |
| --- | --- |
| 5.4 | B1 |
| 5.8 | B2 |
| 6.3 | B3 |
| 5.8 | B4 |
| 6.1 | B5 |
| 6 | B6 |
| 5.9 | B7 |
| 5.9 | B8 |
| 5.9 | B9 |
| 6.5 | B10 |
| 5.6 | B11 |
| 5.4 | B12 |
| 6.1 | B13 |
| 5.6 | B14 |
| 6 | B15 |
| 6.3 | B16 |
| 5.7 | B17 |
| 5.9 | B18 |
| 5.6 | B19 |
| 6.1 | B20 |
| 6.4 | B21 |

| Kd [nM] | Binder |
| --- | --- |
| 6.2 | B22 |
| 6.5 | B23 |
| 6.2 | B24 |
| 5.8 | B25 |
| 5.8 | B26 |
| 5.8 | B27 |
| 5.7 | B28 |
| 6.3 | B29 |
| 6.2 | B30 |
| 6.1 | B31 |
| 6.2 | B32 |
| 5.8 | B33 |
| 6 | B34 |
| 5.4 | B35 |
| 5.7 | B36 |
| 5.6 | B37 |
| 5.7 | B38 |
| 6.3 | B39 |
| 6.2 | B40 |
| 6.4 | B41 |
